Results from patent US20240010735A1 (EISAI R AND D MANAGEMENT, published 2024).

B1: mouse anti-EphA4 monoclonal antibody (antibody A) (antibody, mouse IgG1, kappa, V domains shown)
VH: QVQLKQSGPSLVQPSQSLSITCTVSGFSLTRYGVHWVRQSPGKGLEWLGVIWRGGSTDYNAAFMSRLSITKDNSKSQVFFKMNSLQADDTAIYYCAKESLFGVYYDYGYYSMDYWGQGTSVTVSS
VL: DIQMTQSPSSLSASLGERVSLTCRASQEISGYLSWLQQKPDGTIKRLIYAASTLDSGVPKRFSGSRSGSDYSLTISSLESEDFADYYCLQYASYPLTFGAGTKLELKR
notes: purified from hybridoma supernatant
B2: humanized anti-EphA4 monoclonal antibody (antibody B) (antibody, human IgG2, V domains shown)
VH: QVQLVESGGGVVQPGRSLRLSCAVSGFSLTRFGVHWVRQAPGKGLEWVAVIWRGGSTDYNAAFMSRLTISKDNSKNTVYLQMNSLRAEDTAVYYCAKESLFGVYYDYGYYSMDYWGQGTTVTVSS
VL: DIQMTQSPSSLSASVGDRVTITCRASQEISGYLSWLQQKPGKAPKRLIYAASTLDSGVPSRFSGSRSGTEYTLTISSLQPEDFATYYCLQYASYPLTFGGGTKVEIKR
notes: expressed in Expi293F cells; also called humanized antibody of antibody A; HK2-42 / L1-8

Tests used:
[1] = biological target: T1, mouse EphA4 extracellular region-SEAP-His protein (mouse); experiment: competition ELISA; captured mouse EphA4 extracellular region-SEAP-His, competitor biotinylated mouse EphrinB2-Fc chimera (2.5 nM)
T1 construct: also called mouse EphA4 extracellular region-SEAP-His 10
Description: (§1) Anti-alkaline phosphatase antibodies (Thermo […]) were coated onto the wells of a 96-well plate (Nunc). After incubating at 4° C. overnight, the wells were blocked at room temperature for 1 hour by 1% Block Ace (DS Pharma Biomedical). After washing 3 times with 0.02% Tween 20/PBS (Thermo […]), mouse EphA4 extracellular region-SEAP-His protein was added to the wells (final concentration 10 nM), and incubated at room temperature for 1 hour. After washing 3 times, the ligand and antibody A (0, 0.003, 0.01, 0.03, 0.1, 0.3, 1, 3, 10, 30, 100, 300, 1000, 3000 nM) were supplemented to the wells. Note that biotinylated mouse EphrinA1-Fc chimera (R&D Systems, final concentration 6 nM) and biotinylated mouse EphrinB2-Fc chimera (R&D Systems, final concentration 2.5 nM) were employed as ligands. After incubating at room temperature for 1 hour and washing 3 times, horseradish peroxidase-labeled streptavidin (GE Healthcare) was added, and incubated at room temperature for 1 hour. After washing 3 times, TMBZ (3,3′, 5,5′-tetramethylbenzidine, Sigma) solution was added to the wells, and incubated at room temperature for 2 minutes. An equal amount of quenching solution (1 N H₂SO₄, Wako Pure Chemicals) was added to the wells, and absorbance at 450 nm was read by a microplate reader (PerkinElmer). […]

[2] = biological target: T1, mouse EphA4 extracellular …; experiment: competition ELISA; captured mouse EphA4 extracellular region-SEAP-His, competitor biotinylated mouse EphrinA1-Fc chimera (6 nM)
Description: as §1

[3] = biological target: T2, human EphA4 extracellular region-SEAP-His protein (human, UniProt P54764 20-547); experiment: SPR, Biacore T200; EphA4 extracellular region-SEAP-His captured on anti-His chip, antibody as analyte, 1:1 model
T2 construct: also called human EphA4 extracellular region-SEAP-His 10; not shown: secretory alkaline phosphatase (SEAP); histidine tag
Description: The binding affinity of antibody A against mouse and human EphA4 was determined by surface plasmon resonance (SPR method) employing Biacore T200 (GE Healthcare). First, anti-His antibodies (GE Healthcare, 28-9950-56) were fixed to a sensor chip CM5. Fixation was carried out by amine coupling method employing N-hydroxysuccinimide (NHS) and N-ethyl-N′-(3-dimethylaminopropyl) carbodiimide hydrochloride salt (EDC), and ethanolamine was employed for blocking (the sensor chip and reagents for fixation are all from GE Healthcare). This was diluted with the fixation buffer (10 mM sodium acetate, pH 4.5) to 3.5 μg/mL, and fixed onto the sensor chip according to the protocol accompanying Biacore T200. Mouse or human EphA4 extracellular region-SEAP-His 10 was diluted with the running buffer HBS-EP (GE Healthcare, BR-1001-88), and the solution was sent and captured onto the flow cell for 120 seconds (about 10 RU of captured amount). Subsequently, antibody A serially diluted to a range of 100, 50, 25, 12.5, 6.3, 3.2, 1.6, 0 nM with HBS-EP was added to the sensor chip for 120 seconds, and the binding reaction curve at the time of addition (binding phase, 120 seconds) and after completing the addition (dissociation phase, 600 seconds) was sequentially observed. Upon completion of each observation, 4 M MgCl₂ (60 seconds, Wako Pure Chemicals) was added to regenerate the sensor chip. Fitting analysis by 1:1 binding model employing the software accompanying the system, BIA evaluation software, was carried out against the binding reaction curve obtained, and the binding affinity (KD=kd/ka) against mouse and human EphA4 was calculated.
The binding affinity of antibody B obtained in Example 1 against human EphA4 was determined by surface plasmon resonance (SPR method) employing Biacore T200 (GE Healthcare). First, anti-His antibodies (GE Healthcare, 28-9950-56) were fixed to a sensor chip CMS. […]

T1 sequence (chain, as listed by the source limits assumed): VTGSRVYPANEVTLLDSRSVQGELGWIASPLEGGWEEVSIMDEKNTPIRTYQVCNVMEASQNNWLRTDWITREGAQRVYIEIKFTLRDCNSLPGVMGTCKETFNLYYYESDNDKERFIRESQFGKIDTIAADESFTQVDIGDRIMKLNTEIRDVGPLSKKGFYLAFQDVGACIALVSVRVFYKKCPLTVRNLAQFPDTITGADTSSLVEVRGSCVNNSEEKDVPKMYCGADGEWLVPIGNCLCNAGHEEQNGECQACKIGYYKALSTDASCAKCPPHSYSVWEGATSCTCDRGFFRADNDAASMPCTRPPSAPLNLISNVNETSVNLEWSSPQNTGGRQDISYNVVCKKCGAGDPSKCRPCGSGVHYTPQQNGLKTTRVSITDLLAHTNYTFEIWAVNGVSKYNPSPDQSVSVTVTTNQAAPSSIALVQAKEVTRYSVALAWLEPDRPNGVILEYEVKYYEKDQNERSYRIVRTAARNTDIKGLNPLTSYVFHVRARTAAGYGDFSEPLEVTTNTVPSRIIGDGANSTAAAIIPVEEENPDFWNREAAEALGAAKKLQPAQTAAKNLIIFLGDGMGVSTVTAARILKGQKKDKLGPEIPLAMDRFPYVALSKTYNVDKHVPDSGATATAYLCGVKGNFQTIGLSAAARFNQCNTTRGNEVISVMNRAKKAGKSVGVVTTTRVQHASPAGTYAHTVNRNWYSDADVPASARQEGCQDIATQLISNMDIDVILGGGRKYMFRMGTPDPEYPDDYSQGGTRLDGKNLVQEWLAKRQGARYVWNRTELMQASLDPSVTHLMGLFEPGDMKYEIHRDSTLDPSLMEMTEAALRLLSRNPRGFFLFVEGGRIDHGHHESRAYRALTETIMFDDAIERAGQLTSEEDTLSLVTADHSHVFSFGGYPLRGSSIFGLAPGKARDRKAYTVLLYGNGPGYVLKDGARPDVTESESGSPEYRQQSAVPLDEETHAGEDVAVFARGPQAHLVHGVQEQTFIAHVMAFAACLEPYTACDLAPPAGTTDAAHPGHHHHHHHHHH
T2 sequence (P54764 20-547): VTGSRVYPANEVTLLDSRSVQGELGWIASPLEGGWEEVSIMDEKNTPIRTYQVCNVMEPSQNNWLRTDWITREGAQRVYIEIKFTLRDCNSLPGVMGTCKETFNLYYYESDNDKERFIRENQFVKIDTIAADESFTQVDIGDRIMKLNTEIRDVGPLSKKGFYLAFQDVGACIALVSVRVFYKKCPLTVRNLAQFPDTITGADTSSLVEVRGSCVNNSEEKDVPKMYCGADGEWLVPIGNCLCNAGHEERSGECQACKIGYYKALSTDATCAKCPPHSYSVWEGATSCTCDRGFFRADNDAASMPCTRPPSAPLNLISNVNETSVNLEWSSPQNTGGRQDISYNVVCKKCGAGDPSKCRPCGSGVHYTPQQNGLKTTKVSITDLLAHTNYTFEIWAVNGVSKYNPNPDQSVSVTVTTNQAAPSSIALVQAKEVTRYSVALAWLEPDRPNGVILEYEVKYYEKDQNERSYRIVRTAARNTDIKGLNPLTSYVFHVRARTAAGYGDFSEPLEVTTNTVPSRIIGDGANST

Binder | IC50 [1] [nM] | IC50 [2] [nM] | Kd [3] [nM]
B1 | ~3.1 | ~5.9 | 1.19
B2 | ~4.2 | ~8.7 | 1.34
